Columns and labels:
Assay in all cases: Michaelis-Menten kinetics of purified enzyme (KM)
Format in all cases: biochemical, Pseudomonas aeruginosa
Settings in all cases: FAD
[1] = substrate: CCCC(=O)SCCNC(=O)CCNC(=O)[C@H](O)C(C)(C)COP(=O)(O)OP(=O)(O)OC[C@H]1O[C@@H](n2cnc3c(N)ncnc32)[C@H](O)[C@@H]1OP(=O)(O)O
[2] = substrate: CCCCCC(=O)SCCNC(=O)CCNC(=O)[C@H](O)C(C)(C)COP(=O)(O)OP(=O)(O)OC[C@H]1O[C@@H](n2cnc3c(N)ncnc32)[C@H](O)[C@@H]1OP(=O)(O)O
[3] = substrate: CCCCCCCC(=O)SCCNC(=O)CCNC(=O)[C@H](O)C(C)(C)COP(=O)(O)OP(=O)(O)OC[C@H]1O[C@@H](n2cnc3c(N)ncnc32)[C@H](O)[C@@H]1OP(=O)(O)O

B1: FadE2 (Pseudomonas aeruginosa PAO1) (protein)
chain: MADYKAPLRDMRFVLNEVFEVSRLWAQLPALAEVVDAETAAAILEEAGKVTAGTIAPLNRPGDEEGCQWNAGAVSTPAGFPEAYRTYAEGGWVGVGGDPAYGGMGMPKVISAQVEELVNSANLSFGLYPMLTAGACLALNAHASDELKDKYLPNMYAGIWAGSMCLTEPHAGTDLGIIRTRAEPQADGSYKISGTKIFITGGEHDLTENIIHLVLAKLPDAPAGPKGISLFLVPKVLVNADGSLGEKNSLGCGSIEHKMGIKASATCVMNFDGATGWLVGEVNKGLAAMFTMMNYERLGVGIQGLATGERSYQSAIEYARERIQSRAPTGPVAKDKAADPIIVHPDVRRMLLTMKALNEGGRAFSSYVAMQLDTAKYSEDAVTRKRAEELVALLTPVAKAFLTDMGLETTIHGQQIFGGHGFIREWGQEQLVRDCRITQIYEGTNGIQALDLVGRKVIGSGGAFSRHFTDEIKAFVASADEALGEFSKPLAAAVENLEELTAWLLDRAKGNPNEIGAASVEYLHVFGYTAYAYMWALMARTALAKQGEDDFYASKLGTARFYFARLLPRIHSLSASVRAGSESLYLLDAEQF
notes: full-length ORF, His6 tag removed by TEV
Km [1]: 10.35 ± 1.06 µM | Km [2]: 14.6 ± 1.43 µM | Km [3]: 21.59 ± 1.23 µM

— article PMC11890623, “Pseudomonas aeruginosa acyl-CoA dehydrogenases and structure-guided inversion of their substrate specificity” (Nature Communications, 2025)
